Like-named read-outs stand apart in the source and are kept apart here.
Experiments:
[1] = biological target: T1, human CD20 (human, UniProt P11836 1-297); experiment: cell-based or functional assay
T1 sequence: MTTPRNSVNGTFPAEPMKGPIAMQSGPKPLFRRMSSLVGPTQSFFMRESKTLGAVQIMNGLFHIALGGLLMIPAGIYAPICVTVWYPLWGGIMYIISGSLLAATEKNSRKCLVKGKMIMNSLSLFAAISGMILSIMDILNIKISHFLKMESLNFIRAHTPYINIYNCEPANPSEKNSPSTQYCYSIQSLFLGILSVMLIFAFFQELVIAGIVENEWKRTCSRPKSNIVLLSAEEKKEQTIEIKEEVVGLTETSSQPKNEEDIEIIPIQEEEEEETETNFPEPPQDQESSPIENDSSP

[2] = biological target: T1, human CD20; experiment: cell-based or functional assay; remark: listed apart in the source
[3] = biological target: T1, human CD20; experiment: cell-based or functional assay; remark: listed apart in the source
[4] = biological target: T1, human CD20; experiment: cell-based or functional assay; remark: listed apart in the source
[5] = biological target: T1, human CD20; experiment: flow cytometry, hCD20-transfected MG87 cells
Experimental: Briefly, parental MG87 and human CD20-transfected MG87 cells were incubated for 30 min at 4° C. with each of the 15 human antibodies and the two control antibodies, followed by incubation with PE-conjugated anti-human IgG antibody. Binding was assessed by flow cytometry. Fluorescence intensities were compared with binding to the parental cell line and control isotype-matched sample.

[6] = biological target: T2, mutant human CD20 #1 (Y77F) (human, UniProt P11836 1-297); experiment: FACS, mutant-hCD20 MG87 cells; 100%=best antibody
T2 construct: Human residues replaced by mouse residues; stably expressed on MG87 cells
T2 sequence: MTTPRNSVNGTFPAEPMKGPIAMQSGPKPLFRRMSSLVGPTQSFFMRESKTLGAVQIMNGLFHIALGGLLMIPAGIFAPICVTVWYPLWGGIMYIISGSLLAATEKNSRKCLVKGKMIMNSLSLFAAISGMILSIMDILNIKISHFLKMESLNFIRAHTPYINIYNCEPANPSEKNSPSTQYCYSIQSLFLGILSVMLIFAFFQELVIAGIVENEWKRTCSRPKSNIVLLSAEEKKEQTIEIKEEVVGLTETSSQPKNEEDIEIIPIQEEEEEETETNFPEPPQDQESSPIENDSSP
Experimental: (§1) Briefly, approximately 1×10⁶ cells from each stably transfected cell line expressing a mutant human CD20 were collected and incubated with each anti-human antibody, at 10 μg/ml, on ice for 1 hr, followed by incubation with APC-conjugated goat anti-human IgG (Jackson Immunolabs), at 10 μg/ml, on ice for 45 min. For each antibody, binding to each mutant human CD20 was assessed by flow cytometry.

[7] = biological target: T3, mutant human CD20 #2 (N163D) (human, UniProt P11836 1-297); experiment: FACS, mutant-hCD20 MG87 cells; 100%=best antibody
T3 construct: Stably expressed on MG87 cells
T3 sequence: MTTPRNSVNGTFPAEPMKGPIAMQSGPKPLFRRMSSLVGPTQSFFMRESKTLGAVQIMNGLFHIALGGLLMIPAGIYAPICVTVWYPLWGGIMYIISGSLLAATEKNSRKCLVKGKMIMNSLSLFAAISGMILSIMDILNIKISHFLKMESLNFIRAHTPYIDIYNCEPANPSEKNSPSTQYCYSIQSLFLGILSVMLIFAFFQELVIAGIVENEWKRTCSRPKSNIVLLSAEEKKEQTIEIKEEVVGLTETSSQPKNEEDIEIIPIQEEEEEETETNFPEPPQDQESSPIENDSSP
Experimental: as §1

[8] = biological target: T4, mutant human CD20 #3 (A170S, P172S) (human, UniProt P11836 1-297); experiment: FACS, mutant-hCD20 MG87 cells; 100%=best antibody
T4 construct: Stably expressed on MG87 cells
T4 chain: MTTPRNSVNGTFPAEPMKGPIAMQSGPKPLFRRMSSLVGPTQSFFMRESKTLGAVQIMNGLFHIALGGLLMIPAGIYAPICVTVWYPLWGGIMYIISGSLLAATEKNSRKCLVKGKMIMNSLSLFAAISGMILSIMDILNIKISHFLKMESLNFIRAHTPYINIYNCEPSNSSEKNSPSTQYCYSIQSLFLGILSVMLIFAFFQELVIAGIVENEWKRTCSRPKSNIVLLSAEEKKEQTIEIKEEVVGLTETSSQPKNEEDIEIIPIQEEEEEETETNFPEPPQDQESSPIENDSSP
Experimental: as §1

[9] = biological target: T5, mutant human CD20 #4 (N166D) (human, UniProt P11836 1-297); experiment: FACS, mutant-hCD20 MG87 cells; 100%=best antibody
T5 construct: Stably expressed on MG87 cells
T5 sequence: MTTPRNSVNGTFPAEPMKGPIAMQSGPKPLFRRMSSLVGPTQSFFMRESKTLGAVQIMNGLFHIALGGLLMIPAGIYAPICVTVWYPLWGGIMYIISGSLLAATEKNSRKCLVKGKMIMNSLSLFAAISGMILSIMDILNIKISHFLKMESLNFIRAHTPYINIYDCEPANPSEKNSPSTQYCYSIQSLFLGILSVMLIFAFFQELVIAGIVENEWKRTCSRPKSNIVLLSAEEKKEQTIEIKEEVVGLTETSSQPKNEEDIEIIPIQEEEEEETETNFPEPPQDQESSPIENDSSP
Experimental: as §1

[10] = biological target: T6, mutant human CD20 #6 (Y77F, N166D) (human, UniProt P11836 1-297); experiment: FACS, mutant-hCD20 MG87 cells; 100%=best antibody
T6 construct: Stably expressed on MG87 cells
T6 chain: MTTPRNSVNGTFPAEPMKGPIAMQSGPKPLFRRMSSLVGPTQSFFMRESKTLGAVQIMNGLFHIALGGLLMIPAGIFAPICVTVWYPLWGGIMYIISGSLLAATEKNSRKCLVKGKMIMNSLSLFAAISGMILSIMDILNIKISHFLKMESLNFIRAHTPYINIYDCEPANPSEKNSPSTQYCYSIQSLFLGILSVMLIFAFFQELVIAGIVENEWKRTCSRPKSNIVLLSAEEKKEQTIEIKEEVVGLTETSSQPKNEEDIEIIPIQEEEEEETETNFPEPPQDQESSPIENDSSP
Experimental: as §1

[11] = biological target: T7, mutant human CD20 #7 (Y77F, N163D) (human, UniProt P11836 1-297); experiment: FACS, mutant-hCD20 MG87 cells; 100%=best antibody
T7 construct: Stably expressed on MG87 cells
T7 chain: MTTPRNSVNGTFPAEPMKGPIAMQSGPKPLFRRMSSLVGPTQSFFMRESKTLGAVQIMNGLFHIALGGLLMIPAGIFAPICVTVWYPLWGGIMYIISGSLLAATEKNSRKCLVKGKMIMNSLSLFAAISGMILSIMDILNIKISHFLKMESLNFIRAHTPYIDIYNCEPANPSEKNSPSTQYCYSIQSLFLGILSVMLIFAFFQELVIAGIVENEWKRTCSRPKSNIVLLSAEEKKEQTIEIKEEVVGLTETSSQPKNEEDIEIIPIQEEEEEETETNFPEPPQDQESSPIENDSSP
Experimental: as §1

[12] = biological target: T8, mutant human CD20 #8 (Y77F, N163D, N166D) (human, UniProt P11836 1-297); experiment: FACS, mutant-hCD20 MG87 cells; 100%=best antibody
T8 construct: Stably expressed on MG87 cells
T8 chain: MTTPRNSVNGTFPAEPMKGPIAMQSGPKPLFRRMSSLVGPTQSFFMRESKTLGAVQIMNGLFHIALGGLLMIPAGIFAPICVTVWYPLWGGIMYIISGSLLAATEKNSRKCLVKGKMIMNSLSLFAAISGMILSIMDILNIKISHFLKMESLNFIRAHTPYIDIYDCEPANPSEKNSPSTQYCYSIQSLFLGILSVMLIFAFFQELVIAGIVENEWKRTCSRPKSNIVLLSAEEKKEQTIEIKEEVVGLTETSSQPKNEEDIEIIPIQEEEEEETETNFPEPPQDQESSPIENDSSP
Experimental: as §1

[13] = biological target: T9, mutant human CD20 #9 (N163D, N166D) (human, UniProt P11836 1-297); experiment: FACS, mutant-hCD20 MG87 cells; 100%=best antibody
T9 construct: Stably expressed on MG87 cells
T9 chain: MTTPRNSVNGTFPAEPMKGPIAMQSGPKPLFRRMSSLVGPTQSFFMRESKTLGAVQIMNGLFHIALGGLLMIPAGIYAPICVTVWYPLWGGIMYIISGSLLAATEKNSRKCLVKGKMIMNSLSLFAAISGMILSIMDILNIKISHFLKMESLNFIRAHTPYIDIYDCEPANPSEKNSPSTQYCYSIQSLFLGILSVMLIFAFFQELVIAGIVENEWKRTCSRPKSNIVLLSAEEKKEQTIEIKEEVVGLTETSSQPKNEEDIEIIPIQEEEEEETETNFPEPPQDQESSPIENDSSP
Experimental: as §1

[14] = biological target: T10, mutant human CD20 #10 (A157V) (human, UniProt P11836 1-297); experiment: FACS, mutant-hCD20 MG87 cells; 100%=best antibody
T10 construct: Stably expressed on MG87 cells
T10 sequence: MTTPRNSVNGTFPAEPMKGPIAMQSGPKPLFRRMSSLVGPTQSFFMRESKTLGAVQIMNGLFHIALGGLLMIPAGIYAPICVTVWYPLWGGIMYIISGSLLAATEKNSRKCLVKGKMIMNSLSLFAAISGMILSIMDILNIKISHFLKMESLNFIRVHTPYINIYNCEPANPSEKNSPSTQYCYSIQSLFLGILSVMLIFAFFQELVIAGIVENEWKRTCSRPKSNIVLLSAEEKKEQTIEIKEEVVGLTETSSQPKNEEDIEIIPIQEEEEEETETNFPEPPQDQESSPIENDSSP
Experimental: as §1

B1: rituximab (RITUXAN, IDEC Pharmaceuticals Corp.) (antibody, V domains shown)
VH: QVQLQQPGAELVKPGASVKMSCKASGYTFTSYNMHWVKQTPGRGLEWIGAIYPGNGDTSYNQKFKGKATLTADKSSSTAYMQLSSLTSEDSAVYYCARSTYYGGDWYFNVWGAGTTVTVSA
VL: QIVLSQSPAILSASPGEKVTMTCRASSSVSYIHWFQQKPGSSPKPWIYATSNLASGVPVRFSGSGSGTSYSLTISRVEAEDAATYYCQQWTSNPPTFGGGTKLEIK
CDC, Daudi EC50 [1]: 0.84 nM | CDC, RL EC50 [1]: > 50 nM | % Cytotoxicity (CDC, Daudi), 0 hour [2]: 98.5% | % Cytotoxicity (CDC, Daudi), 1 hour [2]: 86.9% | % Cytotoxicity (CDC, Daudi), 6 hour [2]: 16% | % Cytotoxicity (CDC, Daudi), 0 hour [3]: 91.9% | % Cytotoxicity (CDC, Daudi), 1 hour [3]: 65.3% | % Cytotoxicity (CDC, Daudi), 6 hour [3]: 52.1% | % Cytotoxicity (CDC, Daudi), 0 hour [4]: 98.3% | % Cytotoxicity (CDC, Daudi), 1 hour [4]: 81.1% | % Cytotoxicity (CDC, Daudi), 6 hour [4]: 20.5% | Total Mean Fluorescent Intensity [5]: 2960

B2: 2F2 (antibody, V domains shown)
VH: EVQLVESGGGLVQPGRSLRLSCAASGFTFNDYAMHWVRQAPGKGLEWVSTISWNSGSIGYADSVKGRFTISRDNAKKSLYLQMNSLRAEDTALYYCAKDIQYGNYYYGMDVWGQGTTVTVSS
VL: EIVLTQSPATLSLSPGERATLSCRASQSVSSYLAWYQQKPGQAPRLLIYDASNRATGIPARFSGSGSGTDFTLTISSLEPEDFAVYYCQQRSNWPITFGQGTRLEIK
Percent of Binding to Mutant Human CD20 [6]: 60% | Percent of Binding to Mutant Human CD20 [7]: 30% | Percent of Binding to Mutant Human CD20 [8]: 70% | Percent of Binding to Mutant Human CD20 [9]: 51% | Percent of Binding to Mutant Human CD20 [10]: 1% | Percent of Binding to Mutant Human CD20 [11]: 1% | Percent of Binding to Mutant Human CD20 [12]: 0% | Percent of Binding to Mutant Human CD20 [13]: 4% | Percent of Binding to Mutant Human CD20 [14]: 79%

From patent US20090035322A1 (Regeneron, published 2009)
